The text below walks through data of publication doi:10.1101/839027v1.

Substrate in the data set: O=[N+]([O-])c1ccc(O[C@@H]2O[C@H](CO)[C@@H](O)[C@H](O)[C@H]2O)cc1
Description: purified protein.

B1: β-glucosidase B (BglB) (Paenibacillus polymyxa) (protein)
chain: MSENTFIFPATFMWGTSTSSYQIEGGTDEGGRTPSIWDTFCQIPGKVIGGDCGDVACDHFHHFKEDVQLMKQLGFLHYRFSVAWPRIMPAAGIINEEGLLFYEHLLDEIELAGLIPMLTLYHWDLPQWIEDEGGWTQRETIQHFKTYASVIMDRFGERINWWNTINEPYCASILGYGTGEHAPGHENWREAFTAAHHILMCHGIASNLHKEKGLTGKIGITLNMEHVDAASERPEDVAAAIRRDGFINRWFAEPLFNGKYPEDMVEWYGTYLNGLDFVQPGDMELIQQPGDFLGINYYTRSIIRSTNDASLLQVEQVHMEEPVTDMGWEIHPESFYKLLTRIEKDFSKGLPILITENGAAMRDELVNGQIEDTGRHGYIEEHLKACHRFIEEGGQLKGYFVWSFLDNFEWAWGYSKRFGIVHINYETQERTPKQSALWFKQMMAKNGF
Take B1: the Km amounted to 6.5 ± 0.2 mM and the catalytic constant (kcat) came to 17.83 ± 0.167 s⁻¹.

B2: β-glucosidase B (BglB) (Paenibacillus polymyxa; K337D) (protein)
chain: MSENTFIFPATFMWGTSTSSYQIEGGTDEGGRTPSIWDTFCQIPGKVIGGDCGDVACDHFHHFKEDVQLMKQLGFLHYRFSVAWPRIMPAAGIINEEGLLFYEHLLDEIELAGLIPMLTLYHWDLPQWIEDEGGWTQRETIQHFKTYASVIMDRFGERINWWNTINEPYCASILGYGTGEHAPGHENWREAFTAAHHILMCHGIASNLHKEKGLTGKIGITLNMEHVDAASERPEDVAAAIRRDGFINRWFAEPLFNGKYPEDMVEWYGTYLNGLDFVQPGDMELIQQPGDFLGINYYTRSIIRSTNDASLLQVEQVHMEEPVTDMGWEIHPESFYDLLTRIEKDFSKGLPILITENGAAMRDELVNGQIEDTGRHGYIEEHLKACHRFIEEGGQLKGYFVWSFLDNFEWAWGYSKRFGIVHINYETQERTPKQSALWFKQMMAKNGF
Take B2: the Km is recorded as 4.3 ± 0.1 mM and the turnover number (kcat) came to 13.2 ± 0.667 s⁻¹.

B3: β-glucosidase B (BglB) (Paenibacillus polymyxa; T431I) (protein)
chain: MSENTFIFPATFMWGTSTSSYQIEGGTDEGGRTPSIWDTFCQIPGKVIGGDCGDVACDHFHHFKEDVQLMKQLGFLHYRFSVAWPRIMPAAGIINEEGLLFYEHLLDEIELAGLIPMLTLYHWDLPQWIEDEGGWTQRETIQHFKTYASVIMDRFGERINWWNTINEPYCASILGYGTGEHAPGHENWREAFTAAHHILMCHGIASNLHKEKGLTGKIGITLNMEHVDAASERPEDVAAAIRRDGFINRWFAEPLFNGKYPEDMVEWYGTYLNGLDFVQPGDMELIQQPGDFLGINYYTRSIIRSTNDASLLQVEQVHMEEPVTDMGWEIHPESFYKLLTRIEKDFSKGLPILITENGAAMRDELVNGQIEDTGRHGYIEEHLKACHRFIEEGGQLKGYFVWSFLDNFEWAWGYSKRFGIVHINYETQERIPKQSALWFKQMMAKNGF
For the protein B3, the Km came out at 5.1 ± 0.1 mM and the kcat is 15.3 ± 0.717 s⁻¹.

B4: β-glucosidase B (BglB) (Paenibacillus polymyxa; M319C) (protein)
chain: MSENTFIFPATFMWGTSTSSYQIEGGTDEGGRTPSIWDTFCQIPGKVIGGDCGDVACDHFHHFKEDVQLMKQLGFLHYRFSVAWPRIMPAAGIINEEGLLFYEHLLDEIELAGLIPMLTLYHWDLPQWIEDEGGWTQRETIQHFKTYASVIMDRFGERINWWNTINEPYCASILGYGTGEHAPGHENWREAFTAAHHILMCHGIASNLHKEKGLTGKIGITLNMEHVDAASERPEDVAAAIRRDGFINRWFAEPLFNGKYPEDMVEWYGTYLNGLDFVQPGDMELIQQPGDFLGINYYTRSIIRSTNDASLLQVEQVHCEEPVTDMGWEIHPESFYKLLTRIEKDFSKGLPILITENGAAMRDELVNGQIEDTGRHGYIEEHLKACHRFIEEGGQLKGYFVWSFLDNFEWAWGYSKRFGIVHINYETQERTPKQSALWFKQMMAKNGF
B4: the Km stood at 6.0 ± 0.5 mM and the turnover number (kcat) was 15 ± 0.517 s⁻¹.

One may read the Km as the substrate concentration at which the rate is half of its maximum. The term kcat denotes the maximal rate divided by the concentration of active sites.
